According to patent US20230220070A1 (ARIALYS THERAPEUTICS, published 2023):
Values belong to the binder of their own block, whether it stands above or below them.

How the values were obtained:
[1] = target: T1, human NMDAR (NR1/NR2B) on NMDAR expressing HEK cells (human, UniProt Q05586 19-938; Q13224 27-1484); test: flow cytometry on NMDAR-expressing HEK cells, PE-labelled anti-human IgG, GeoMFI
T1 construct: whole, on cells; Commercial HEK cell line (Charles River Laboratories, CTN6121); The antibodies are directed against the NR1 subunit; also called cell surface NMDAR; NMDAR expressed in HEK cells
Procedure: The binding activity of the produced humanized one-armed anti-human NR1 monoclonal antibodies was evaluated in a flow cytometry trial using the NMDAR expressing HEK cell.
The NMDAR expressing HEK cells were induced overnight and collected. […] After staining, the cells were sedimented at 1,200 rpm for 5 minutes and the supernatant was removed. After adding 2% Dialyzed FBS to the cells, the cells were centrifuged and sedimented. After the supernatant was removed, the PE labeled anti-human IgG antibody (Jackson ImmunoResearch Laboratories, 109-116-098) was diluted 100 times with 2% Dialyzed FBS and added to cells for 30 minutes at 4° C. After staining, the cells were centrifuged and sedimented as described above. After removing the supernatant, the cells were suspended in 2% Dialyzed FBS and the steps after secondary staining were repeated. The flow cytometry (FACS Verse) was measured as described in Example 3. each antibody binds with the cell surface NMDAR from GeoMFI showing the PE Fluorescence intensity value was analyzed using FlowJo (Becton Dickinson, Ver. 10.0.8).

[2] = target: T2, human NR1-His protein (extracellular domain of human NR1 with linker, HisTag and AviTag) (human, UniProt Q05586 19-392); test: SPR (Biacore T200), antibody captured by anti-human IgG on a CM5 chip, human NR1-His protein as analyte, 1:1 binding model
T2 construct: Expressed in Expi293F cells and purified from the supernatant; also called human NRA-His protein; human NR-His protein

[3] = target: T2, human NR1-His protein (extracellular …); test: competition ELISA on plate-coated human NR1-His protein; inhibition of the binding of biotin-labelled P003-102, streptavidin-HRP chemiluminescence
Procedure: Specifically, 15 μL of the human NR1-His protein solution (1 μg/mL in Tris Buffered Saline (herein referred to as “TBS”)) was added to the 384 well plate (Thermo Fisher Scientific, 460372) and incubated overnight at 4° C. Then, the human NRA-His protein solution was removed and washed with 0.5% Tween-20 comprising TBS, NIPPON GENE, 310-07375 (referred to as “TBS-T”). After the wash, 50 uL of Blocking One (Nacalai Tesque, Inc., 03953-95) was added and incubated at room temperature for 1 hour or more.
After the wash, 15 μL is added to the HRP-labelled streptavidin (Funakoshi Co., Ltd., 21130) diluted 8,000 times using diluent, and incubated at room temperature for 30 minutes.

- EC50 (read off the curve) [1]: ~0.8 µg/mL
B1: ABN-5, one-armed anti-human NR1 antibody derived from P003-102 (antibody, human IgG1, lambda, L234A L235A)
heavy: not shown
light: NFMLTQPHSVSESPGKTVTISCTRSSGSIASNYVQWYQQRPGSAPTTVIYEDNQRPSGVPDRFSGSIDSSSNSASLTISGLKTEDEADYYCQSYDSSTVVFGGGTKLTVLGQPKANPTVTLFPPSSEELQANKATLVCLISDFYPGAVTVAWKADGSPVKAGVETTKPSKQSNNKYAASSYLSLTPEQWKSHRSYSCQVTHEGSTVEKTVAPTECS
chain: not shown
notes: Monovalent one-armed antibody made of one heavy chain (LALA; T366S, L368A, Y407V), one light chain and one Fc polypeptide

- Kd [2]: 0.878 nM
- IC50 (read off the curve) [3]: ~2 µg/mL
B2: ABN-4, humanized one-armed anti-human NR1 antibody (antibody, human IgG1, kappa, L234A L235A)
heavy: not shown
light: DIQMTQSPSSLSASVGDRVTITCRPSENIYSNLAWYQQKPGKAPKLLVYAATNLADGVPSRFSGSGSGTDYTLTISSLQPEDIATYYCQHFWDSPPTFGQGTKLEIKRTVAAPSVFIFPPSDEQLKSGTASVVCLLNNFYPREAKVQWKVDNALQSGNSQESVTEQDSKDSTYSLSSTLTLSKADYEKHKVYACEVTHQGLSSPVTKSFNRGEC
chain: not shown

- EC50 (read off the curve) [1]: ~0.05 µg/mL
- IC50 (read off the curve) [3]: ~0.3 µg/mL
B3: ABN-2, humanized one-armed anti-human NR1 antibody (antibody, human IgG1, kappa, L234A L235A)
heavy: not shown
light: DLQMTQSPSSLSASVGDRVTITCKASQDVNTAVAWYQQKPGKAPKLLIYWASTRHTGVPSRFSGSGSGTDYTLTISSLQPEDFATYYCQQHYSTPFTFGQGTKVEIKRTVAAPSVFIFPPSDEQLKSGTASVVCLLNNFYPREAKVQWKVDNALQSGNSQESVTEQDSKDSTYSLSSTLTLSKADYEKHKVYACEVTHQGLSSPVTKSFNRGEC
chain: not shown
notes: also called ABN_178-m3
